Assays:
[1] = target: the molecule itself; assay: cryo-EM structure; IHM_(mava): 2 μM cHMM with 1 mM ATP, 50 μM mavacamten (5% DMSO), cross-linked with 1 mM BS3, 50 mM KCl, 10 mM Mops pH 7; Lacey continuous carbon grid; ADP.Pi state; 3.7 Å
[2] = target: T1, single-headed human beta-cardiac myosin S1 (cS1), MYH7 residues 1 to 834 fused to GFP and FLAG (human, UniProt P12883 1-834); assay: cross-linking; quantitative XL-MS with DSBU (600 μM, 20 min, 25°C) on 4 μM purified cS1 with bound light chains, 10 mM Mops pH 7.3, 50 mM KCl, 1 mM ATP, with 50 μM mavacamten or DMSO; conditions: both partners purified
T1 construct: beta-cardiac myosin heavy chain (MYH7), human, residues 1 to 834, followed by a short linker, a GFP domain and a FLAG tag; also called cS1gfp

| binding result [2] | Binder | binding result [1] |
| --- | --- | --- |
|  | human beta-cardiac heavy meromyosin (β-cHMM) heavy chain, MYH7 residues 1 to 1137 (domain or fragment, UniProt P12883 1-1137, looked up, FLAG tag at 1138 to 1146; Two heavy chains form the two-headed cHMM; in the sample each carries a mouse ELC and RLC; For cryo-EM and negative stain the sample was cross-linked with BS3 in the presence of ATP; also called βCM; beta-cardiac myosin) MGDSEMAVFGAAAPYLRKSEKERLEAQTRPFDLKKDVFVPDDKQEFVKAKIVSREGGKVTAETEYGKTVTVKEDQVMQQNPPKFDKIEDMAMLTFLHEPAVLYNLKDRYGSWMIYTYSGLFCVTVNPYKWLPVYTPEVVAAYRGKKRSEAPPHIFSISDNAYQYMLTDRENQSILITGESGAGKTVNTKRVIQYFAVIAAIGDRSKKDQSPGKGTLEDQIIQANPALEAFGNAKTVRNDNSSRFGKFIRIHFGATGKLASADIETYLLEKSRVIFQLKAERDYHIFYQILSNKKPELLDMLLITNNPYDYAFISQGETTVASIDDAEELMATDNAFDVLGFTSEEKNSMYKLTGAIMHFGNMKFKLKQREEQAEPDGTEEADKSAYLMGLNSADLLKGLCHPRVKVGNEYVTKGQNVQQVIYATGALAKAVYERMFNWMVTRINATLETKQPRQYFIGVLDIAGFEIFDFNSFEQLCINFTNEKLQQFFNHHMFVLEQEEYKKEGIEWTFIDFGMDLQACIDLIEKPMGIMSILEEECMFPKATDMTFKAKLFDNHLGKSANFQKPRNIKGKPEAHFSLIHYAGIVDYNIIGWLQKNKDPLNETVVGLYQKSSLKLLSTLFANYAGADAPIEKGKGKAKKGSSFQTVSALHRENLNKLMTNLRSTHPHFVRCIIPNETKSPGVMDNPLVMHQLRCNGVLEGIRICRKGFPNRILYGDFRQRYRILNPAAIPEGQFIDSRKGAEKLLSSLDIDHNQYKFGHTKVFFKAGLLGLLEEMRDERLSRIITRIQAQSRGVLARMEYKKLLERRDSLLVIQWNIRAFMGVKNWPWMKLYFKIKPLLKSAEREKEMASMKEEFTRLKEALEKSEARRKELEEKMVSLLQEKNDLQLQVQAEQDNLADAEERCDQLIKNKIQLEAKVKEMNERLEDEEEMNAELTAKKRKLEDECSELKRDIDDLELTLAKVEKEKHATENKVKNLTEEMAGLDEIIAKLTKEKKALQEAHQQALDDLQAEEDKVNTLTKAKVKLEQQVDDLEGSLEQEKKVRMDLERAKRKLEGDLKLTQESIMDLENDKQQLDERLKKKDFELNALNARIEDEQALGSQLQKKLKELQARIEELEEELEAERTARAKVEKLRS | binds |
| binds | human MYL2 (vLC2), ventricular regulatory light chain (natural protein, UniProt P10916 1-166, looked up, myosin regulatory light chain MYL2 (vLC2), human; also called RLC) MAPKKAKKRAGGANSNVFSMFEQTQIQEFKEAFTIMDQNRDGFIDKNDLRDTFAALGRVNVKNEEIDEMIKEAPGPINFTVFLTMFGEKLKGADPEETILNAFKVFDPEGKGVLKADYVREMLTTQAERFSKEEVDQMFAAFPPDVTGNLDYKNLVHIITHGEEKD |  |
| binds | human MYL3 (vLC1), ventricular essential light chain (natural protein, myosin essential light chain MYL3 (vLC1), human; also called ELC) not shown |  |
